From doi:10.1101/239830

Legend:
Test in all cases: fluorescence polarisation
[1] = biological target: OR-1 peptide derived from olfactory receptor OLFR1507
[2] = biological target: V1rb2-1 peptide derived from vomeronasal receptor V1RB2
[3] = biological target: V1rb2-2 peptide derived from vomeronasal receptor V1RB2

PERK LD as used in the fluorescence anisotropy assays (domain or fragment)
Kd [1]: 250 µM
Kd [2]: 6.6 µM
Kd [3]: 6.1 µM
